Experimental findings from the DeepSol protein solubility set are described below.

The nature of this data set: soluble on expression in E. coli; label from the status in PepcDB or PDB records.
On to “MANDEEFFIVRCRGPSSYRESVYKYLTGQPSDWNRNSVFLRNMHVGRAKNVKEIFNCILQTQPLPVVQPCHPVRQPRESFYSSHEHDPMDEVLLQEVKEEAHSLAFKGIPIETKGPTPSSTIMNPEVTLRDVLTFHKNIKRRPQETKPAKFDFSAMPSTSRLPPTSPKRYRQFAPPPISMKQSPKICAKTVSCPSTSEVKSPPKKMIIQKIQKHQEAPKPAKVPKIKGEKKKKDGRQDEQEEIDIELKLSKSTVSSQTLKRHNISFERKPQRGI”, for which the “soluble on expression in E. coli” value is listed as “not soluble”. Then “MMNKKEARTLIKERRMNLSKEYIDVASDKIFEKLLQNEDFKNVKTVMSYMDFKNEVKTDRINTFIKNSGKILVLPKVVDKETMIVIEDKNQYIVSPFGNKEPDGEEYKGSIDVIITPGVAFDRDKNRVGFGRGYYDRFFVKQPNAKKIAIAFEKQIIDEGIETDKYDKKVDILITEDEIIKLEHHHHHH”, with “soluble”; and “MAHHHHHHMRANPIERRKERETALSVRQRELEELRQRKAQLGEELGMELSALEGDNLAAAFPVIQYCGSRPKKDAKKIPVESLGSVMNQFEIAIKAISQNNRDIEQQITDLNRTIGVEAQRFTKLKRHSKELADATGVSLDPNAVQHLAGKSRDGEDCSGGLKELEETTVVLEERKALVEKEIRAARQLVKKKEEAVLAMSSALESRQEEIDQLNRLYNDIRVVDRDIKCEKETLREIISEHDIVDTKLNEAIERNVSRTRLLIEQGINEIKTEIADSVSVSRRGQERVMKAQEFRIDQLEKRLDCINKALKNNHLTRDVEAIVSHKWAAAGDALVAATPDESMYDIEAIIPPQERCHPAIYNLLLTEKERLARRISLLGIIAKEKKEVIDALACKAEALARECQQAIQELDHVASAAAYEEEMQRVEAMEYIQKQRLHYSDLFKEMWKLKTKNQGPLWRAY”, with “not soluble”; and “GPQDPDKRRKTLVIIEKTYSLLLDVEDYERRYLLSLEEERPALMDDRKHKICSMYDNLRGKLPGQERPSDDHFVQIMCIRKGKRMVARILPFLSTEQAADILMTTARNLPFLIKKDAQDEVLPCLLSPFSLLLYHLPSVSITSLLRQLMNLPQSAATPALSNPHLTAVLQNKFGLSLLLILLSRGEDLQSSDPATESTQNNQWTEVMFMATRELLRIPQAALAKPISIPTNLVSLFSRYVDRQKLNLLETKLQLVQ”, with “soluble”.

On to “MRFIHTSDWHLGKSLEGHSRIEEQAKFCEEFIKIVESNEIDMVIIAGDVYDTSNPPAQAEKLFYQTVSRLANNGQRCVLIISGNHDNPERLSAITPLAHEQGILIYGYPLSATIEAKYKGFEITYATQGCTKLNINGENIVVATLPYPSEKRLNEVFSSEDEFEKQKNYSEKVGDIFRSLEENFRSDTINIAVSHIFVIGGESTESERPIQLGGSFLVERKDLPEKAQYTALGHLHKQQKASERLNAYYSGSPLQYSKDERAYTKGAYIVDIKAGEKPIIEDVYFNNYKPIEVFKCNGIEEALDICEQNQDREIWSYFEINTDEIISQNEIKKMKELLKDIIEIKPIITSCYEQESVDIKEKSMAELFREFYSFSKGVEPKGELMDLFLDIISEEGESADETN”, for which the “soluble on expression in E. coli” value is recorded as “not soluble”.

As to “MGSDKIHHHHHHMQVRTFKGPSAKTVLDMIKAEIGPEAVILSSRDCSGDGVTWCEMTVGVEREAAAAPRMGRDEPAAGDQTPPAGWDEWHREWDEIKGHIMALMKPALRLDELAPRQRVALEYLEREGVEDNVILALYRRLRGAPSLSVLEPLSAVVPVKGWGGADWPQKMQIVCGPSGVGKTSAVVRMALALRRQNAGVRICVLNADSQRGSGRMVLRHYAELCGMGYHEISGPADAAALLGELDGYDKILVDTPVPGRGATLRSLLEETGLDVLEQQVPAAVQLVMSPLYGDAQISFFLRQYECGLPCGLVWTKLDEACNFGALINVPAASGLPVTALSFGSGLKNSLASARGTMIWRLVFKKQLPGDVAAR”, the “soluble on expression in E. coli” value was “not soluble”. With “MENAFKNKALYHQLVDLLQERIETCMIPHDKLPSERELTAQYGVSRTTVRLALQELENRGSIYRRHGKGTFVSDIKKEAADLAGAYSFTEQMKGLGRKPHTRILSFEKLEADKFICQHLNLSLGEAVFKLSRLRIADNEPLMVEDTYLPVKFFLSLTDQLLRSKPLYDLFSEDFKQTVRLADEELYASIASKEDAKLLMIPEGAPVLHLARQTYNMKNEIIEFTLSVARADQFHYQIRHIRNS” the entry was “not soluble”. As for “PTSLEKLPSADVKGQDLYKTQPPRSDAQGGKAYLKWICITCGHIYDEALGDEAEGFTPGTRFEDIPDDWCCPDCGATKEDYVLYEEK”, the “soluble on expression in E. coli” value was “soluble”.

“MGSDKIHHHHHHMLLEIRHVTQYHYERPVRESLMELWMQPQKTARQRLVSFELDLNPAAQVFSYADSFGNAVYHFDVPQPHDNLTIIARSAVETESPGERPDQLDMGEWDRLRSEFVRGECFDFLRPHGFVRTTEALQTFINEHDLDALKRRDPLTAVRSLSETIYGAFEYQPGVTDADSPIDLTLSAGRGVCQDFAHIMLAVCRGWGVPARYVSGYLFTDRDAGDRSDPDATHAWVEVFLPSLRWVGFDPTNNMMAGERHVAVAVGRDYADVTPSRGVYKGDAESQLAVGVSVRRARAALAEPEFLRMARPSFAGGRRRHDTALREELHQQQQQQQ”: the “soluble on expression in E. coli” value is on record as “not soluble”. Then “MKISSIDSIFAAWDGSITEARRLQSDMAERIVLKDEPNLLSEPTLLAGFDVGFEDEGRTTRAAAVLMNAGDLRLLETHVVRVPTSMPYVPGLLSFRELPALLQALTQLSRIPALVFVDGHGIAHPRRLGIAAHFGLVTNLPCIGVAKKRLVGDFVEPGTAFGEHTPILLHGTQVGWALRSKMHCKPLIISPGHKVSLHSALTWTQRCLTGYRLPEPTRQADRLASRRGQKIVSDLPSLLLEHHHHHH”, with “soluble”; and “MSDILLGKLATEFKTVKAMVEVYCHDHHGTKDALCSECRELLEYAEVRLDRCPYGEEKPTCNKCPIHCYKPEPKEQMRLVMRYSGPRMLLKHPILAVRHLLHEKREVPEKPAANASNRHKRINAERDT”, with “not soluble”; and “MSLTDLKEVARLAGVSRATAARAFASPEVVRAETRERVFVAARELGFRPNRLGRQLRLQTTNLIGVIVPNLLNPVFAEQFQAMERAARARGYNLLLATTDYSAERESAVVEELLRQRVDGLVLTVTDAEHNRVLESLAIEDTPFVLAYHQTDNEEYSAVSVDNRAGMALATRYLIDAGHRCIAMVAGPVMQSDRARLRYEGYRDAMNEGGLEARPVIEMPAHTNADFAALKPLLRGPTAPSALVCSNDLLAISLIAELRRNGWGVPERLSVIGFDGIALGTQMHPTLCSVVQPIAELAHIVIDQLLARIAGAVPVSHCLPCHIRPGESTQPYKEMLHAQPEGHHHHHH”, with “soluble”.

As to “SLARSPSVSAGTRPHAGEHTDTSPISSAVSAPSPSSLPLVFSPQPSVSSSSLPLSSSSLARVSSSPQPSASSASLPLSSSRQSGEALGSSGAASSESSRERQGKLRLRHPRQRKPFLLQVLHAEHRCHNPRELARVQRAGGSIFAGRVGGVLEPSRSVGDFDVKDAQPPGVLIATPEVCRVKVRKPTLVLLGTDGVWDMLCSADVLACVKKVTQFWQLLLAAFRERMEELQEEATEKQENEKERGEGDQVRESSGNGKG”, the “soluble on expression in E. coli” value is reported as “soluble”. Take “MSLDLPAHARVVIVGGGVMGVGLAYHLAHEGWGGDTVLLEKAELTSGSTWHAAGQITHSTSSFGLGKCVDYNIGLYSGKLEAETGQAVTWHGCGSFRLAYTEDEMDWLRHTLSVGRSLGFNIELVGPKRIAELHPFYNLDGVLGALHTPDDGHVDPTNVTMAMAAGARAKGVRIFRHTCATNITQGANGEWVVETGKGTITCEHVVNAGGTYARQMGEWSGLQLPMTSMTHHYFVTEPVPEFQSLDRELPVIRDDRKVSGYIRMEQKRGLIGIYEKANPNAVWIDECPWDYENWLFDADYDRVMPWLEESLNRMPIFADLGIQREVHGAISHPPDGNPLIGPAPGVRNYWCCCGTQIGIGWGPGLSRELARWIVHGAADISMRDFDPRRFGAYATKDWQVIKAREDYCLRHEIPFPHFNRLAGRPVKPSPLYDRLKEKGAVYEEVYGHERPRWFARGIEQRDHYGFGRTPVHDMVATECAAVRSAAGIMDISAFTRVEVSGPDAGALLDRLTANRLPQKPGGIALTHMLNRRGRIELETTVVKLDEDRFYLVCAAFFEQRLLDHLAAHRGTADITVRNLSTDWAALALNGPHARDILAACTEADLSNARFKWLTAQQITVAGHSLWALRMSYAGELGWELHIPRDHALAVYDALWAAGQRYGLTDYGSFAMNALRMEKAFKGAGELTNEVTLAEADVLRFARTDKDYLGRDKTLNAGNLPWVCAYLEIAPDGRFDGNGGEAVLLDGKVVGSTASVAYGHTVGKILAFAYVKPQVNVPGTEVEVIIAGNPRKGRILGAPAYDPDSTKPRADAEGHHHHHH”: the “soluble on expression in E. coli” value is “soluble”. With “MITVSIVSHGQSTLVEQLLADLVRLDMSMVTEVLVTLNIPEDISSKPGDYPYPVRILRNTAARGFGANHNAAFRQAEGEWFCVMNPDIRLINNPFPILIEEGAYDSAGVIAPMVVTPSGMIEDSVRCFPVLTSLAAKLFGHGDGRYLFAAGDEAFAADWVAGMFMLFRTEDFRAVGGFDEGFFLYYEDVDICARLWKSGRSVLACPKASVIHDARRSSRRNLRYMKWHALSLIRYFWKHWGRLPQTPEQLEHHHHHH” the entry was “soluble”; with “MGSDKIHHHHHHMTSVEPTKAVLFLQGPPSILWTEFARAFEQAGVKTHHVNFTLGDFLFWRKRGAKNYRGSFSKWPAYLRRLIAEKGITDIVYYADRLPYHAKAAEIGEELGVRCHAVEWGYLRPDWLTFERDGMGRFSHFPNDPKAIRAIAAKVEEPDIAVKYPHTFGQEAFNEVIYNLLNFFGRPFYPLYNADKYYSALVDYLPWLLKAGVKPARLPEGFLEDGQPPFYLVALQLQSDYQIRANSPYRHLRDMMRQVIASFVKNAPAGSKLLFKQHPLDNGLERWHKVLRHIAREFKIEDRVVFIEEGDLHDILQKTAGVVIVNSTVGLHSLRAQKPTIVLGCAVFDVPGLTHQGRLDDFWKRPEPVDPELMRDLVKAMAATIQIKGDFFNKAGRQAAIGAMVQRVIEGTVNMPDAFIDPPPRLTSPKGILTVLGRPVELDWEEDAAVPDMTYARSGPIR”, “not soluble”. As to “MRVQPVTNCEKAVILEALKIGKRFDFRSLEEFRDVKLVVGAEVGTAICTIGNTKVMAAVSAEIAEPSSMRPHKGVINIDVDLSPMANYANEHDRLGSKGMELIRLLELIIRDSRCIDVEALCIRAGKEIWKIRVDVRILDEDGSLLDCACLAAITALQHFRRPNVTLEPHHTLIYSEYEKAPVPLNIYHMPICTTIGLLDKGQIVVIDPTDKETACLDGSIVVACNKRREVCALHQSTNLILSTKQIERCVKLAMARAEALTAVVSDVIKQDQIERSAFKRPDGFAITTPSLILTAGTTASRQIRAPVIKTEPESFTQRSLYQPSVILNENPLSVGSVKQEDVDEETLLAEQLTTIQNSVGQVEVTEKQTVAVSSRKREVEEVNDLLDGLDDDDEEEEVQTMTLGSETVLNDVPMEEAPDAEDSLVNAKKKKKK”, the “soluble on expression in E. coli” value is “not soluble”. With “MARGPGPLGMPRPDTVAMPKRGKRLKFRAHDACSGRVTVADYANSDPAVVRSGRVKKAIANAVQQEVKSLCGLEASQVPAEEALSGAGEPCDIIDSSDEMDAQEESIHERTVSRKKKSKRHKEELDGAGGEEYPMDIWLLLASYIRPEDIVNFSLICKNAWTVTCTAAFWTRLYRRHYTLDASLPLRLRPESMEKLRCLRACVIRSLYHMYEPFAARISKNPAIPESTPSTLKNSK” the entry was “not soluble”.
